Target: MBP-BnPHR1 (Brassica napus, UniProt W5QL02 1-417)
Assay: EMSA; EMSA: 750 mM KCl, 0.5 mM DTT, 0.5 mM EDTA, 50 mM Tris pH 7.4 (so in the source), room temperature, 20 min; native PAGE, SYBR Green then SYPRO Ruby stain
Conditions: protein: recombinant; tags: N-terminal MBP (pMAL-c2); chain copies: 2; label: none (SYBR Green post-stain); 5' overhang 4 nt on both strands (AATT and CCGG), 41 bp duplex

Chain of MBP-BnPHR1 (W5QL02 entry or part of it): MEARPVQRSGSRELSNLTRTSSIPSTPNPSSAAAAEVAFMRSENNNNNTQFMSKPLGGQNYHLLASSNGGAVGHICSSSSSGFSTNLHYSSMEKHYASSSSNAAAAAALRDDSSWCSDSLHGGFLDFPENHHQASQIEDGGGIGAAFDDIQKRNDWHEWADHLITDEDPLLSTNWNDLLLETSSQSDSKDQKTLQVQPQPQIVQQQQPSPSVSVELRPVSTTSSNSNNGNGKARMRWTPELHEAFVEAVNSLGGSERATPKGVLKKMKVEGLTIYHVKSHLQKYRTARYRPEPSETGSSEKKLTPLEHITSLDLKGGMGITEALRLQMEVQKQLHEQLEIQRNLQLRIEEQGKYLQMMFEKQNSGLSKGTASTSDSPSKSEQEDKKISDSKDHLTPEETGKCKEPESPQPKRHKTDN

B1: BnPT2 promoter probe (BnPT2p1/p2) (dsDNA)
DNA 1: AATTGGAGGGGAATATACCGAAACATTGTTGTATATTCATGTAAG
DNA 2: CCGGCTTACATGAATATACAACAATGTTTCGGTATATTCCCCTCC
B1: binds.

Reference: article PMC3430610, “Brassica napus PHR1 Gene Encoding a MYB-Like Protein Functions in Response to Phosphate Starvation”
